Reference: paper PMC2722910

Tested on: CC(C)C[C@H](NC(=O)[C@H](CO)NC(=O)[C@H](C)NC(=O)[C@H](CCCNC(=N)N)NC(=O)[C@H](CCCNC(=N)N)NC(=O)[C@@H](N)CC(C)C)C(=O)NCC(=O)O
Assay: purified protein
Conditions: Mg2+, ATP

Substance “cAMP-dependent kinase (PKA) catalytic subunit (Homo sapiens)” has a kcat of 8.5 ± 0.5 s⁻¹.
